Experimental data: article PMC3418257

Biological target: glutathione-S-transferase coupled human VDR fusion protein (human) (UniProt P11473)
Assay: pull-down; GSThVDR-Sepharose bead slurry as bait, [35S]-labelled in vitro translated RUNX2 as prey; PPI buffer (20 mM HEPES pH 7.9, 200 mM KCl, 1 mM EDTA, 4 mM MgCl2, 1 mM dithiothreitol, 0.1% Nonidet P-40, 10% glycerol), beads pre-blocked with BSA; with or without 1,25(OH)2D3; SDS-PAGE, autoradiography, densitometry

Chain of UniProt P11473 (P11473 whole entry, the tested form may be a part): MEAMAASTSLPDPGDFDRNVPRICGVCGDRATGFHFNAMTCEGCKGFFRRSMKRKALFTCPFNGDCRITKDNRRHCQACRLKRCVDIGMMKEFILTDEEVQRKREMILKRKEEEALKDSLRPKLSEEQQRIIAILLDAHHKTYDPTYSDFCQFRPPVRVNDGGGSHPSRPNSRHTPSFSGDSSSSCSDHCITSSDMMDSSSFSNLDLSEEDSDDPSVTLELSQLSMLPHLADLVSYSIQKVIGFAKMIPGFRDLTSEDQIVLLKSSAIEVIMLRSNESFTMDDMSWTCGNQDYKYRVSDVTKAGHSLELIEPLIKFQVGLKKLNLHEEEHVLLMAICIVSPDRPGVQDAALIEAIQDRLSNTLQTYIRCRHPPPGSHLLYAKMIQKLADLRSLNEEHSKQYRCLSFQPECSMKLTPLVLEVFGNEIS

human RUNX2 23Q wild type (natural protein)
percent of label recovered in pull down: 25%
